Data on one variant can be found in IntAct's records for PubMed 8940099.

Sequences and labels used below:
B1: NF-kappa-B inhibitor alpha (Homo sapiens), P25963 (parent)
chain: MFQAAERPQEWAMEGPRDGLKKERLLDDRHDSGLDSMKDEEYEQMVKELQEIRLEPQEVPRGSEPWKQQLTEDGDSFLHLAIIHEEKALTMEVIRQVKGDLAFLNFQNNLQQTPLHLAVITNQPEIAEALLGAGCDPELRDFRGNTPLHLACEQGCLASVGVLTQSCTTPHLHSILKATNYNGHTCLHLASIHGYLGIVELLVSLGADVNAQEPCNGRTALHLAVDLQNPDLVSLLLKCGADVNRVTYQGYSPYQLTWGRPSTRIQQQLGQLTLENLQMLPESEDEESYDTESEFTEFTEDELPYDDCVFGGQRLTL
partner: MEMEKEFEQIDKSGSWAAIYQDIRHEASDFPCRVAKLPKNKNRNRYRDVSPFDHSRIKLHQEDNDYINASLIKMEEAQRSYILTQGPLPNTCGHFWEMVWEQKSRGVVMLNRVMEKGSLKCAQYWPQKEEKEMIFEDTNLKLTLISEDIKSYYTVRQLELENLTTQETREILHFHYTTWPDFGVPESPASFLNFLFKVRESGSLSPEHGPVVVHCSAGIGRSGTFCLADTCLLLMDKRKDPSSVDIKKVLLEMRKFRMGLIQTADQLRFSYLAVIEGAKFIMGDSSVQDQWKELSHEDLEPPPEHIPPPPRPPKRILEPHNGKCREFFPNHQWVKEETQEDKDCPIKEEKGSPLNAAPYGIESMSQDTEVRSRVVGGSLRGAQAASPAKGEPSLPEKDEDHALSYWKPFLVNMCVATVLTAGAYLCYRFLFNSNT

The test covers variants of B1. To be noted: with ptn1_human PTPN1, P18031.
For the variant Y42F, the “effect of a mutation on the interaction” value is “disrupting interaction”.
